In publication PMC11908248 (bioRxiv, 2025):
One block for each molecule: values may come before it.

B1: UNC-83a^N-term-mScarlet-StrepII (domain or fragment, C. elegans, UniProt Q23064 1-305, looked up)
chain: MDVMDSFSEVEMPNDISSEDHLLKVIESSAEEVDIFLENCSSLYNLILDSLHNLTSKTISCECLDEMTSTLEKSAKKILAERPEAENSVLLRLNTICCAMDQLRVQHNSRMMSGADSDTASSARSSTSSSTGEMRLWLHEVERRLEINEKRIRVEPNLQLLLSDQQALQLEIQHEGQLLVNRLNKQIKDDHDSDSSEEEKRKTCVDAIRKRWHTIYLNSLSLVCRIEELINHQQASEDSESDPDLVGPPIKRARIRTVGHLTASDTEESEADEEDRHSQTETVVTEDDNVLPFAENEYESIMDGR
B2: UNC-116-sfGFP-StrepII (natural protein, C. elegans, UniProt P34540 1-815, looked up)
chain: MEPRTDGAECGVQVFCRIRPLNKTEEKNADRFLPKFPSEDSISLGGKVYVFDKVFKPNTTQEQVYKGAAYHIVQDVLSGYNGTVFAYGQTSSGKTHTMEGVIGDNGLSGIIPRIVADIFNHIYSMDENLQFHIKVSYYEIYNEKIRDLLDPEKVNLSIHEDKNRVPYVKGATERFVGGPDEVLQAIEDGKSNRMVAVTNMNEHSSRSHSVFLITVKQEHQTTKKQLTGKLYLVDLAGSEKVSKTGAQGTVLEEAKNINKSLTALGIVISALAEGTKSHVPYRDSKLTRILQESLGGNSRTTVIICASPSHFNEAETKSTLLFGARAKTIKNVVQINEELTAEEWKRRYEKEKEKNTRLAALLQAAALELSRWRAGESVSEVEWVNLSDSAQMAVSEVSGGSTPLMERSIAPAPPMLTSTTGPITDEEKKKYEEERVKLYQQLDEKDDEIQKVSQELEKLRQQVLLQEEALGTMRENEELIREENNRFQKEAEDKQQEGKEMMTALEEIAVNLDVRQAECEKLKRELEVVQEDNQSLEDRMNQATSLLNAHLDECGPKIRHFKEGIYNVIREFNIADIASQNDQLPDHDLLNHVRIGVSKLFSEYSAAKESSTAAEHDAEAKLAADVARVESGQDAGRMKQLLVKDQAAKEIKPLTDRVNMELTTLKNLKKEFMRVLVARCQANQDTEGEDSLSGPAQKQRIQFLENNLDKLTKVHKQLVRDNADLRVELPKMEARLRGREDRIKILETALRDSKQRSQAERKKYQQEVERIKEAVRQRNMRRMNAPQIVKPIRPGQVYTSPSAGMSQGAPNGSNA

What was measured:
[1] = target: C. elegans kinesin-1 heterotetramer (UNC-116-sfGFP-StrepII + KLC-2-6xHis) (C. elegans) (UniProt P34540); test: mass photometry
[2] = target: UNC-116-sfGFP-StrepII (C. elegans) (UniProt P34540); test: mass photometry
[3] = target: GST-KLC-2 (C. elegans) (UniProt P46822); test: BLI
GST-KLC-2 (C. elegans), sequence (P46822 whole entry): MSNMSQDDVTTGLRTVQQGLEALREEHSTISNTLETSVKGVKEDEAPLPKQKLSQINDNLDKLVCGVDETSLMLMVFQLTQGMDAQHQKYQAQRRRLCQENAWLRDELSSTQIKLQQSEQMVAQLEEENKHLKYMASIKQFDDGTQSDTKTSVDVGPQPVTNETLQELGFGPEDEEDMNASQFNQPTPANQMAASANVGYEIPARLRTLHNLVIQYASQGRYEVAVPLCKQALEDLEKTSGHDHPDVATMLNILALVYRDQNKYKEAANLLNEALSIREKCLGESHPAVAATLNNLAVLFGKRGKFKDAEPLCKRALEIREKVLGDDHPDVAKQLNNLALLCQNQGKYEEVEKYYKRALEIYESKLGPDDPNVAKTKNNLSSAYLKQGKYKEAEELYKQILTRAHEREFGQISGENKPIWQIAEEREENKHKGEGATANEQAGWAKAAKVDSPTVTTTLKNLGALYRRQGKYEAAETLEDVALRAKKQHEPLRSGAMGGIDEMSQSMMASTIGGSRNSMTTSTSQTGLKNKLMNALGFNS

[4] = target: GST-KLC-2 (C. elegans) (UniProt P46822); test: mass photometry
[5] = target: B2; test: mass photometry
[6] = target: the molecule itself; test: mass photometry

percent of particles in the peak of the complex [1]: 97 % peak
stoichiometry N (UNC-83a monomer per kinesin-1 tetramer) [1]: 1
percent of particles in the peak of the complex [2]: 99 % peak
stoichiometry N (UNC-83a monomer per UNC-116 dimer) [2]: 1
Kd [3]: > 1000 nM
Molecule: UNC-83a-mScarlet-StrepII (from UniProt Q23064 1-1041) (domain or fragment)

percent of particles in the peak of the complex [4]: 97 % peak
stoichiometry N (UNC-83c monomer per KLC-2 monomer) [4]: 1
Molecule: UNC-83c-mScarlet-StrepII (domain or fragment)

Molecule: B1
stoichiometry N [5]: 1 UNC-83a^N-term monomer per UNC-116 dimer
stoichiometry N [6]: 2

Molecule: B2
stoichiometry N [6]: 2
